From patent publication US20090317396A1 (AJOU UNIVERSITY INDUSTRY ACADEMIC COOPERATION FOUNDATION, published 2009)
One block for each binder: values may come before it.

What was measured:
[1] = target: T1, DcR2 (UniProt Q9UBN6 56-211); test: SPR (Biacore 2000), antigen immobilised on CM5 chip
T1 construct: also called death decoy receptor 2
T1 sequence (looked up): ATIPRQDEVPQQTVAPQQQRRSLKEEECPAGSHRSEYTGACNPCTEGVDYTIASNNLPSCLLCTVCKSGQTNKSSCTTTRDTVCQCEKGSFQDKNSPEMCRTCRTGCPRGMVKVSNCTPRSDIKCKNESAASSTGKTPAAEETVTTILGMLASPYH
Experimental: (§1) The binding affinity of the anti-DR5 scFv antibody to DR5, and the cross-reactivities of the antibody with other antigens, DcR1, DcR2, DR4, TNFR1, TNFR2 and CD95 were determined by Biacore 2000 SPR (surface plasmon resonance) biosensor (Pharmacia, Sweden), respectively.

[2] = target: T2, death receptor 4 (DR4) (UniProt O00220 24-239, limits assumed); test: as above
T2 construct: also called TRAIL receptor 1
T2 sequence (O00220 24-239 limits assumed): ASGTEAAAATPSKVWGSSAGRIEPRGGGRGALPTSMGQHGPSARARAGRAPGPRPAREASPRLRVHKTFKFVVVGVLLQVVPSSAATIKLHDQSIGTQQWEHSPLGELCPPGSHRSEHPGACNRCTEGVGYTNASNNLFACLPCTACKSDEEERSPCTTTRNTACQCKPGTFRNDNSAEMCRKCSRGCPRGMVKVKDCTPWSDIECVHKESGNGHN
Experimental: as §1

[3] = target: T3, TNFR2 (UniProt P20333 23-257); test: as above
T3 sequence (looked up): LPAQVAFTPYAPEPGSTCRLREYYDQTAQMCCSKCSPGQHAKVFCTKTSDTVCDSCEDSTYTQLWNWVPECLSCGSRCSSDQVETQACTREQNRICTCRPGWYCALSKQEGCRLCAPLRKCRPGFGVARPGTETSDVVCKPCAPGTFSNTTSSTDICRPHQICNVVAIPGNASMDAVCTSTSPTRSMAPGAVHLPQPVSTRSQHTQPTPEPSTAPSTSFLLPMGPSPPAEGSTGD
Experimental: as §1

[4] = target: T4, death receptor 5 (DR5) (UniProt O14763 52-182, limits assumed); test: SPR (Biacore 2000), DR5 immobilised on CM5 chip, scFv injected, 25° C.
T4 construct: Purified antigen immobilised on CM5 chip or coated on ELISA plates; also called TRAIL receptor 2; TRICK2
T4 sequence (O14763 52-182 limits assumed): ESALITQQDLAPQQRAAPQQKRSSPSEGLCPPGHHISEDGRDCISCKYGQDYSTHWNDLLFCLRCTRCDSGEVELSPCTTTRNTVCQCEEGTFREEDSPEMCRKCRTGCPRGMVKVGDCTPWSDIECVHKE
Experimental: as §1

[5] = target: T5, CD95 (UniProt P25445 26-173); test: SPR (Biacore 2000): CD95 immobilised on a CM5 chip, HW1 injected
T5 sequence (looked up): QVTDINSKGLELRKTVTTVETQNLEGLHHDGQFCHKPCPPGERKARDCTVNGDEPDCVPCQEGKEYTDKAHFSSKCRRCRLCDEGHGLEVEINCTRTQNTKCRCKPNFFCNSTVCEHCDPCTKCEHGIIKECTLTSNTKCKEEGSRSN
Experimental: as §1

[6] = target: T6, death decoy receptor 1 (DcR1) (UniProt O14798 26-221, limits assumed); test: SPR (Biacore 2000): DcR1 immobilised on a CM5 chip, HW1 injected
T6 sequence (looked up): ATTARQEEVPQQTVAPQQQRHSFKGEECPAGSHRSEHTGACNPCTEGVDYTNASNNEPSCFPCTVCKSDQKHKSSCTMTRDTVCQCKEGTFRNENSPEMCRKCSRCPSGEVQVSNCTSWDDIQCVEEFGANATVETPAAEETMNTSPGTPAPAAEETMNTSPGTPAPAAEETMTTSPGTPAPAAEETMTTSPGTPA
Experimental: as §1

[7] = target: T7, TNFR1 (UniProt P19438 30-211, limits assumed); test: SPR (Biacore 2000): TNFR1 immobilised on a CM5 chip, HW1 injected
T7 sequence (looked up): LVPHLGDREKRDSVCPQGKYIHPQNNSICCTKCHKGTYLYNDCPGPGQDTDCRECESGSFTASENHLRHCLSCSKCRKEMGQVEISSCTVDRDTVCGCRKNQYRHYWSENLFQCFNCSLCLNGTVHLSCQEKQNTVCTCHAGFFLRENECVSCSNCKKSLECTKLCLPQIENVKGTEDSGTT
Experimental: as §1

[8] = target: T2, death receptor 4 (DR4); test: SPR (Biacore 2000): DR4 immobilised on a CM5 chip, HW6 injected
Experimental: as §1

[9] = target: T5, CD95; test: SPR (Biacore 2000): CD95 immobilised on a CM5 chip, HW6 injected
Experimental: as §1

[10] = target: T6, death decoy receptor 1 (DcR1); test: SPR (Biacore 2000): DcR1 immobilised on a CM5 chip, HW6 injected
Experimental: as §1

[11] = target: T7, TNFR1; test: SPR (Biacore 2000): TNFR1 immobilised on a CM5 chip, HW6 injected
Experimental: as §1

binding result [1]: no binding (tested: up to 10 µM) | binding result [3]: no binding (tested: up to 10 µM) | binding result [5]: no binding | binding result [7]: no binding
B1: HW1 anti-DR5 scFv antibody (scFv)
scFv: QVQLQQSGPGLVKPSQTLSLTCAISGDSVSSTTVAWDWIRQSPSRGLEWLGRTYYRSKWYNEYAVSVKSRITINVDTSKNQISLQLNSVTPEDTAVYYCAREPDAGRGAFDIWGQGTTVTSPLRWGRFGWRGLGRGWLRSPVTQSPGTLSLSPGERATLSCRASQSVSSSHLAWYQQKPGQAPRLLIYGASSRATGIPDRFSGSGSGTDFTLTISSLEPEDFAVYYCQQRSNWPPRAVFGQGTRLEIK
notes: Human scFv expressed in E. coli periplasm (PelB signal removed on export), purified, monomeric; not shown: C-terminal Flag tag from vector pKJ1; C-terminal 6xHis tag from vector pKJ1
binding result [2]: no binding (tested: up to 10 µM) | Kd [4]: 202 nM | koff [4]: 0.00471 s⁻¹ | kon [4]: 23300 M⁻¹ s⁻¹ | binding result [6]: no binding

binding result [1]: no binding (tested: up to 10 µM) | binding result [3]: no binding (tested: up to 10 µM) | binding result [9]: no binding | binding result [11]: no binding
B2: HW6 anti-DR5 scFv antibody (scFv)
scFv: QVQLQQSGPGRVQPSQTLSLTCAISGDSVSNNNAAWYWIRQSPSRGLEWLGRTYYRSKWYNDYAVSVKSRITISPDTSKNQFSLQLNSVTPEDTAVYYCARRGDGNSYFDYWGQGTLVTVSSGILRWGRFGWRGLGRGWLEIVLTQSPGTLSLSPGERATLSCRASQSVSSGYVSWYRQKPGQAPRLLIYGASTRATGIPDRFSGSGSGTDFTLTISRLEPEDFAVYYCHQYGSSPNTYGQGTKVGIK
notes: Human scFv expressed in E. coli periplasm, purified, monomeric; not shown: C-terminal Flag tag from vector pKJ1; C-terminal 6xHis tag from vector pKJ1
Kd [4]: 54.5 nM | koff [4]: 0.00688 s⁻¹ | kon [4]: 126000 M⁻¹ s⁻¹ | binding result [8]: no binding | binding result [10]: no binding
